Measured values: PMC5937523 (Biochemistry, 2017)

T1: KDAC6 (Homo sapiens, UniProt Q9UBN7)
T1 sequence (Q9UBN7 1-1215): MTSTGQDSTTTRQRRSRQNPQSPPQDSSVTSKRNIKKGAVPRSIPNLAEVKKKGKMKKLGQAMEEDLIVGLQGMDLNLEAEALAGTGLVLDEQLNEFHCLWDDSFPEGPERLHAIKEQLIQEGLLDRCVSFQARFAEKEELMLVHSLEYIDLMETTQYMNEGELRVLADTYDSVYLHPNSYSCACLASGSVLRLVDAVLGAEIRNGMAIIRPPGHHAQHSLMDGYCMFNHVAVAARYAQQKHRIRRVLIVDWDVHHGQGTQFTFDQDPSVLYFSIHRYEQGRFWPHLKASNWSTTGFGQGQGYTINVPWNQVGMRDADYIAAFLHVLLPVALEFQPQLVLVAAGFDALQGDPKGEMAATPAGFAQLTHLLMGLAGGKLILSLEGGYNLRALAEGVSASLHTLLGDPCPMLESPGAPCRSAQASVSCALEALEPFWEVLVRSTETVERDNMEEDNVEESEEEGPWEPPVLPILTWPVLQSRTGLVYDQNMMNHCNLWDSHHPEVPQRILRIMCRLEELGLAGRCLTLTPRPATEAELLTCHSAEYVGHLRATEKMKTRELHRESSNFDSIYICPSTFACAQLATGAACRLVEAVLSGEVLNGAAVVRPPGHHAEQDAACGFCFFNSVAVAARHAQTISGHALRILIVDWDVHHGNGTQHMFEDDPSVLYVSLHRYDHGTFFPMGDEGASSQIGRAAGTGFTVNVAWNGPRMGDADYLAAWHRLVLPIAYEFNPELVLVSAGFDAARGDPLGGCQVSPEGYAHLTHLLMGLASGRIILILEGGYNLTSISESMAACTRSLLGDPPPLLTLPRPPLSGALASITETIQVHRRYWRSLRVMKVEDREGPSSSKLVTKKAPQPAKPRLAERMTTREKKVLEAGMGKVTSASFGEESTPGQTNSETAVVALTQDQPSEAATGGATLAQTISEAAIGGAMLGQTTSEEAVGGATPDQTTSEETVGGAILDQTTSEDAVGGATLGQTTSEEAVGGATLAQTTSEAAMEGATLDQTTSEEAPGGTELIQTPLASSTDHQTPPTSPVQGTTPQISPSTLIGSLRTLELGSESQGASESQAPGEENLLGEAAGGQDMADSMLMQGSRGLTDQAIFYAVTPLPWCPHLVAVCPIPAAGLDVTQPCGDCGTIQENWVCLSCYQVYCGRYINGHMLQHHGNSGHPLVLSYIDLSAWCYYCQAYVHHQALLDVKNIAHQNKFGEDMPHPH

T2: human KDAC8 (lysine deacetylase 8) (human) (UniProt Q9BY41)
T2 sequence: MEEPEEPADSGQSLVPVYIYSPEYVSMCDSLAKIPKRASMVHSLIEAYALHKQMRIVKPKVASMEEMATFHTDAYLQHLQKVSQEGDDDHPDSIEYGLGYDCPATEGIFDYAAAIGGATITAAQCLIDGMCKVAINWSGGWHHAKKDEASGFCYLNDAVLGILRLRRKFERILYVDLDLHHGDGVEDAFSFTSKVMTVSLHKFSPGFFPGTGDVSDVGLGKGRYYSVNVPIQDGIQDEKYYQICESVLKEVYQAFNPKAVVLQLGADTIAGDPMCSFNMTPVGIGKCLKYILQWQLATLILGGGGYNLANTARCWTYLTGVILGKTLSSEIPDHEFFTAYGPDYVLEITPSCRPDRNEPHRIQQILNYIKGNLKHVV


Legend:
KDAC6 = target: T1, KDAC6
[1] = target: T2, human KDAC8 (lysine deacetylase 8) (human)
[2] = target: KDAC6 (lysine deacetylase 6) (human) (UniProt Q9UBN7)

Row | KM of steady-state deacetylation kinetics (fluorescamine assay, 25 °C) [1] | KM of steady-state deacetylation kinetics (fluorescamine assay, 25 °C) [2] | Molecule | SAHA inhibition of KDAC6 in the presence and absence of AMC (KDAC6)
1 | 1200 µM |  | Ac-RHK(Ac)K(Ac)W-NH2 [RH{K-ac}{K-ac}W] | 
2 | 2700 µM |  | Ac-RGK(Ac)W-NH2 [RG{K-ac}W] | 
3 | 3100 µM | 370 µM | Ac-RHK(Ac)K(Ac)-NH2 [RH{K-ac}{K-ac}] | 

Further lines, the molecule ahead of its results:

Row | Molecule | KM of steady-state deacetylation kinetics (fluorescamine assay, 25 °C) [1] | KM of steady-state deacetylation kinetics (fluorescamine assay, 25 °C) [2] | SAHA inhibition of KDAC6 in the presence and absence of AMC (KDAC6)
4 | O=C(CCCCCCC(=O)Nc1ccccc1)NO [SAHA, suberoylanilide hydroxamic acid] |  |  | comparable
5 | RG{K-ac} (peptide) | > 5000 µM |  | 
6 | {K-ac}W (peptide) | > 5000 µM | 70 µM | 
